Data as given in patent publication US12617870B2, “Methods of reversing ticagrelor activity” (SFJ Pharmaceuticals X, LTD., priority 2018, dated 2026).
Where “and” joins values, the source holds several entries; their conditions need not be identical. Equal values may be shown once. Entries after “also recorded” stand apart in the source; their conditions may differ.

Experiments:
[1] = system: platelet reactivity (VerifyNow P2Y12); experiment: Phase 1 healthy volunteer study: VerifyNow P2Y12 platelet reactivity (PRU); type: in vivo, human; details: sustained for 24 hours
Description: Secondary Objectives: 1) To determine the pharmacokinetics of ascending doses of IV PB2452 in the presence and absence of ticagrelor; 2) To determine the pharmacokinetics of ticagrelor and its active metabolite TAM in the presence and absence of PB2452; 3) To assess the effectiveness of a single IV PB2452 dose in reversing ticagrelor antiplatelet activity by measuring P2Y12 reaction units (PRU) with VerifyNow™ P2Y12 assay and platelet reactivity index (PRI) with vasodilator stimulated phosphoprotein (VASP) phosphorylation assay by enzyme-linked immunosorbent assay (ELISA); 3) To evaluate the pharmacokinetics and pharmacodynamics of restarting a single dose of oral ticagrelor 24 hours after IV PB2452 administration if a sixth dose of ticagrelor is given; 4) To evaluate the immunogenicity potential of PB2452 […]
(§1) The primary efficacy outcome was the effectiveness of PB2452 in reversing the antiplatelet effect of ticagrelor by analyzing platelet aggregation using light transmission aggregometry at multiple time points before and after PB2452 or placebo administration in ticagrelor pretreated subjects. Secondary efficacy outcomes were the effectiveness of ticagrelor reversal assessed using VerifyNow and the vasodilator stimulated phosphoprotein phosphorylation immunoassay (VASP).

[2] = Phase 1 healthy volunteer study: safety, treatment-emergent adverse events; type: in vivo, human
Description: Safety Assessments: Safety and tolerability will be assessed by monitoring and recording of AEs, clinical laboratory test results (hematology, coagulation, serum chemistry, and urinalysis), vital sign measurements (systolic and diastolic blood pressures, oral body temperature, respiratory rate, and heart rate), 12-lead ECG results, cardiac telemetry monitoring, immunogenicity, and physical examination findings.
(§2) The primary safety outcome was the frequency and severity of treatment emergent adverse events (AEs) associated with PB2452 with or without oral ticagrelor pretreatment. Clinical laboratory test results, vital sign measurements, 12-lead ECG and continuous telemetry results, and physical examination findings were also assessed at multiple timepoints from screening to the end of the 28-day safety follow-up period. Immunogenicity was assessed before and at 7 and 28 days after PB2452 administration.

P2Y12 receptor signaling = experiment: Phase 1 healthy volunteer study: VASP phosphorylation ELISA (PRI); details: human, in vivo
Description: Secondary Objectives: 1) To determine the pharmacokinetics of ascending doses of IV PB2452 in the presence and absence of ticagrelor; 2) To determine the pharmacokinetics of ticagrelor and its active metabolite TAM in the presence and absence of PB2452; 3) To assess the effectiveness of a single IV PB2452 dose in reversing ticagrelor antiplatelet activity by measuring P2Y12 reaction units (PRU) with VerifyNow™ P2Y12 assay and platelet reactivity index (PRI) with vasodilator stimulated phosphoprotein (VASP) phosphorylation assay by enzyme-linked immunosorbent assay (ELISA); 3) To evaluate the pharmacokinetics and pharmacodynamics of restarting a single dose of oral ticagrelor 24 hours after IV PB2452 administration if a sixth dose of ticagrelor is given; 4) To evaluate the immunogenicity potential of PB2452
VASP by ELISA: 1) PRU at each assessment point; 2) Percent of baseline in PRU; 3) Maximal PRU; 4) Time to maximal PRU; 5) Time to 60%, 80%, 90% of baseline PRU
as §1

[3] = Phase 1 healthy volunteer study: pharmacokinetics of PB2452; type: in vivo, human
Protocol: Plasma Collection: Blood samples for PK analysis of PB2452 in plasma will be collected from all subjects at the following time points: before dosing (within 10 minutes prior to the initiation of study drug infusion and up to 28 days after the initiation of study drug infusion. Specific collection times for each cohort are listed in the table below: […]

[4] = system: platelet aggregation (ticagrelor antiplatelet activity); type: in vivo, human
Protocol: Platelet function was assessed using light transmission aggregometry (LTA), VerifyNow, and vasodilator stimulated phosphoprotein (VASP) assays before and after 48 hours of ticagrelor administration […] Cohorts 7 to 10 received an 18-gram fixed dose of PB2452 via various infusion regimens or placebo. Infusions of PB2452 in these cohorts were initiated 2 hours after the last ticagrelor pretreatment dose to coincide with the peak concentration of ticagrelor. (Gurbel (2009). Subjects in all cohorts were randomized in a 3:1 ratio to receive PB2452 or placebo. The primary efficacy outcome was the effectiveness of PB2452 in reversing the antiplatelet effect of ticagrelor by analyzing platelet aggregation using light transmission aggregometry at multiple time points before and after PB2452 or placebo administration in ticagrelor pretreated subjects. Secondary efficacy outcomes were the effectiveness of ticagrelor reversal assessed using VerifyNow and the vasodilator stimulated phosphoprotein phosphorylation immunoassay (VASP). The sample size of 64 was based on clinical and practical considerations and not on a formal statistical power calculation. The sample size was considered sufficient to adequately assess the safety, efficacy, and pharmacokinetic profiles of PB2452 and the pharmacokinetic and pharmacodynamic profiles of ticagrelor. Reversal of antiplatelet effect was evaluated by comparing the mean percent of baseline platelet aggregation between PB2452 and placebo using Wilcoxon rank-sum test. Multiplicity was adjusted using the Bonferroni method. Correlations between each pair of the platelet function tests were evaluated using Pearson's correlation and Spearman's rank correlation coefficient. Mean data from subjects receiving placebo were pooled across cohorts for all presentations. Categorical variables are summarized by their frequencies and percentages, and continuous variables are presented with the number of subjects with non-missing data, mean, standard deviation, median, minimum, and maximum. Descriptive statistics are presented for each cohort, and pooled placebo and PB2452 data. For pharmacodynamic data, platelet aggregation results were compared between each cohort and pooled placebo data (cohorts 4 to 6 and cohort 7 to 10 were pooled separately). All analyses were performed with SAS software, version 9.4 (SAS Institute).

[5] = Phase 1 healthy volunteer study: immunogenicity (anti-drug antibodies); type: in vivo, human
Protocol: as §2
Other secondary outcomes included assessment of the PB2452 and ticagrelor pharmacokinetic profiles and evaluation of PB2452 immunogenicity at day 7 and 28 post-infusion.

[6] = of the 48 subjects given PB2452

B1: PB2452: recombinant human IgG1λ monoclonal Fab antibody fragment that binds specifically to ticagrelor and TAM (antibody, listed as Homo sapiens)
heavy: QVQLQESGAEVKKPGSSVRVSCKASGGTFDSYSIHWVRQAPGQGLEWMGGIIPAFGTLSSAQDFQARVTISADKSTSTAYMELSGLRSEDTAVYYCARGSFDYYFWSASHPPNDALAIWGQGTLVTVSSASTKGPSVFPLAPSSKSTSGGTAALGCLVKDYFPEPVTVSWNSGALTSGVHTFPAVLQSSGLYSLSSVVTVPSSSLGTQTYICNVNHKPSNTKVDKRVEPKSCDK
light: QSVVTQPPSVSAAPGQKVTISCSGSNSDIGNNYVSWYQQLPGTAPKLLIYDNNKRPSGIPDRFSGSKSGTSATLAITGLQAGDEADYYCGTWLYDRAVGLFGGGTKVTVLGQPKAAPSVTLFPPSSEELQANKATLVCLISDFYPGAVTVAWKADSSPVKAGVETTTPSKQSNNKYAASSYLSLTPEQWKSHRSYSCQVTHEGSTVEKTVAPTECS
modifications: PB2452 VH with CH1; PB2452 VL with CL
[1]
  mean VerifyNow platelet reactivity: ≥ 180 PRU
[2]; 0.1 to 18 g IV, healthy subjects
  overall safety and tolerability: safe and well-tolerated
[2]; All PB2452 (N = 48)
  Number of Subjects with at Least 1 TEAE: 17 (35.4%) n (%) and 17 (35.4) n (%)
  Total Number of TEAEs: 27
[2]; TEAE, All PB2452 (N = 48)
  Abdominal pain: 1 (2.1) n (%)
  Acute respiratory failure: 1 (2.1) n (%)
  Alcohol poisoning: 1 (2.1) n (%)
  Blood urine present: 1 (2.1) n (%)
  Conjunctivitis: 1 (2.1) n (%)
  Contusion: 0 n (%)
  Dizziness: 1 (2.1) n (%)
  Eyelid irritation: 0 n (%)
  Gastroenteritis: 1 (2.1) n (%)
  Hematuria: 1 (2.1) n (%)
  Infusion site bruising: 4 (8.3) n (%)
  Infusion site extravasation: 2 (4.2) n (%)
  Infusion site reaction: 1 (2.1) n (%)
  Medical device site reaction: 3 (6.3) n (%)
  Musculoskeletal chest pain: 0 n (%)
  Nasopharyngitis: 1 (2.1) n (%)
  Oropharyngeal pain: 1 (2.1) n (%)
  Pharyngitis streptococcal: 1 (2.1) n (%)
  Pneumonia aspiration: 1 (2.1) n (%)
  Skin abrasion: 1 (2.1) n (%)
  Upper limb fracture: 1 (2.1) n (%)
  Vessel puncture site bruise: 2 (4.2) n (%)
[2]; human, in vivo
  deaths or adverse events leading to study drug discontinuation: no deaths or adverse events leading to study drug discontinuation
  drug-related adverse events: no drug-related adverse events; also recorded: None of the adverse events was considered related to study drug
  study-drug related serious adverse events, dose-limiting toxicities, infusion-related reactions: no study-drug related serious adverse events, dose-limiting toxicities, or infusion-related reactions; also recorded: no serious adverse events or infusion reactions associated with PB2452
P2Y12 receptor signaling
  VASP PRI restored, relative to baseline: ~100 % of baseline
  duration of restored VASP PRI: 20 to 24 h
  time to restoration of VASP PRI: ≤ 5 min
[3]; 18 gram dose level with 8- to 16-hour infusions
  PB2452 exposure extended for: 12 to 24 h
[3]; IV, healthy subjects
  estimated distribution half-life: 0.86 h
  estimated terminal half-life: 6.9 h
  volume of distribution: approximately 2.9 L
[3]; dose range of 0.1 to 9.0 grams
  dose dependence of mean exposure: dose-linear increases in mean exposure
[4]; 3 g or 9 g PB2452 IV over 30 minutes
  time to complete restoration of platelet function: ≤ 30 min
[4]; 10-minute IV bolus followed by 16-hour infusion, multiple assays
  reversal sustained for: over 20 hours
[4]; 10-minute IV bolus followed by 16-hour infusion, multiple assays, vs placebo P<0.0001
  onset of reversal: ≤ 5 min
[4]; Cohort 7, 18 g: 3.0 g bolus followed by 8 hour infusion
  time to significantly increased mean platelet aggregation: ≤ 2 h
[4]; Cohorts 8 to 10, 18 g: 6.0 g bolus followed by infusions for 12 or 16 hours
  time to reversal after initiation of the infusion: ≤ 5 min
[4]; LTA, all post-treatment time points up to 20 hours
  mean platelet aggregation restored, relative to pre-ticagrelor baseline: ≥ 80 % of baseline
[4]; human, in vivo
  rebound in platelet activity after drug cessation: no evidence of rebound
[5]; human, in vivo
  effect of antibody titers on PB2452 safety or efficacy: no observed effect
[5]; [6]
  subjects anti-drug antibody positive post-dosing: 6 (12.5%) subjects (%)
  subjects with detectable anti-drug antibodies: 21 (43.8%) subjects (%)
  subjects with pre-existing (pre-dose) antibodies: 15 (31.3%) subjects (%)
